Patent CN110156890A (UNIV SUZHOU, dated 2019)

How the values were obtained:
Sema7A_truncated抗原蛋白 = target: T1, Sema7A_truncated抗原蛋白 (mouse, UniProt Q9QUR8 59-219); experiment: ELISA, 1 ug antigen coated, antibody dilution series
T1 construct: Truncated part of mouse Sema7A chosen for antigenicity, expressed in E. coli from pET28a; also called Sema7A-His; not shown: His tag from pET28a (Sema7A-His)
T1 sequence: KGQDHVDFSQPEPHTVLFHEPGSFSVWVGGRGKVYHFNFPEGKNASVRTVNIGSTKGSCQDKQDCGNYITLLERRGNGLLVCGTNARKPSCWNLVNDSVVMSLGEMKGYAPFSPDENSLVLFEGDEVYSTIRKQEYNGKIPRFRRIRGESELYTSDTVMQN

小鼠Sema7A蛋白 = target: T2, 小鼠Sema7A蛋白 (mouse, UniProt Q9QUR8 45-646); experiment: western blot of mouse lung tissue
T2 construct: Endogenous protein of mouse lung tissue, denatured on a western blot; also called Semaphorin7A
T2 sequence (looked up): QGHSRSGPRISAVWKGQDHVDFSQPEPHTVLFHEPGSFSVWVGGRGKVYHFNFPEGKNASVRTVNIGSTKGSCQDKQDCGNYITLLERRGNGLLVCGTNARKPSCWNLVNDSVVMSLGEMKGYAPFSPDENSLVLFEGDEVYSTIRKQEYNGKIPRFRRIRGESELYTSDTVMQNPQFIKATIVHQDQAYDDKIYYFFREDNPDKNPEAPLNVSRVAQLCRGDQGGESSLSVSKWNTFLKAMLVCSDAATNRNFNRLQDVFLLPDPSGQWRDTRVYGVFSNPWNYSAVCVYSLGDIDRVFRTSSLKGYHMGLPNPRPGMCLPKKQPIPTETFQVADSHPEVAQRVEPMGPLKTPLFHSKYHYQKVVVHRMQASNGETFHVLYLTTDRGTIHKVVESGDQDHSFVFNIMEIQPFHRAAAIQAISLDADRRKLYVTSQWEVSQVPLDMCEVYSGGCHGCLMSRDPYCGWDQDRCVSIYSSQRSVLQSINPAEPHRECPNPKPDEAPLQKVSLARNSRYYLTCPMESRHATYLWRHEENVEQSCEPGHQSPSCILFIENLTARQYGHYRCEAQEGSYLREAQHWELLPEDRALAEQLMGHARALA

B1: Semaphorin7A单克隆抗体2567-1 (antibody, V domains shown)
VH: QVQLQQSGAELVKPGASVKLSCKASGYTFTSYYMYWVKQRPGQGLEWIGEINPSNGDTNFNEKFKSKATLTVDKSSSTAYMQLSSLTSEDSAVYYCTTPARATFAYWGQGTLVTVSA
VL: DVVMTQTPLSLPVSLGDQASISCRSSQSLVHSNGNTYLHWYLQKPGQSPKLLIYKVSNRFSGVPDRFSGSGSGTDFTLKISRVEAEDLGVYFCSQSTHVPYTFGGGTKLEIK
notes: also called Sema7A抗体2567-1
Does B1 bind (Sema7A_truncated抗原蛋白)?
Result: binds

Does B1 bind (小鼠Sema7A蛋白)?
Result: binds
